Assay results from PMC11638004, “Phosphorylation of auxin signaling repressor IAA8 by heat-responsive MPKs causes defective flower development” (Plant Physiology, 2024).

Tests used:
Test in all cases: pull-down; 2 μg GST-IAA8 or GST on glutathione-Sepharose-4B beads, 5 μg His-MPK added, overnight at 4°C; 50 mM Tris-HCl pH 7.5, 200 mM NaCl, 0.1 mM EDTA, 0.5 mM DTT, 1% Triton X-100; four washes; immunoblot with anti-His
Details in all cases: both partners purified
His-MPK6 = target: T1, His-MPK6 (Arabidopsis thaliana, UniProt Q39026 1-395)
T1 construct: The N-terminal position of the His tag is read from the name His-MPK6 and the vector pQE30; also called His-fused MPK6; source: E. coli M15, purified (Ni-NTA agarose); not shown: His, N-terminal, kept

His-MPK3 = target: T2, His-MPK3 (Arabidopsis thaliana, UniProt Q39023 1-370)
T2 construct: The N-terminal position of the His tag is read from the name His-MPK3 and the vector pQE30; also called His-fused MPK3; source: E. coli M15, purified (Ni-NTA agarose); not shown: His, N-terminal, kept
T2 sequence (looked up): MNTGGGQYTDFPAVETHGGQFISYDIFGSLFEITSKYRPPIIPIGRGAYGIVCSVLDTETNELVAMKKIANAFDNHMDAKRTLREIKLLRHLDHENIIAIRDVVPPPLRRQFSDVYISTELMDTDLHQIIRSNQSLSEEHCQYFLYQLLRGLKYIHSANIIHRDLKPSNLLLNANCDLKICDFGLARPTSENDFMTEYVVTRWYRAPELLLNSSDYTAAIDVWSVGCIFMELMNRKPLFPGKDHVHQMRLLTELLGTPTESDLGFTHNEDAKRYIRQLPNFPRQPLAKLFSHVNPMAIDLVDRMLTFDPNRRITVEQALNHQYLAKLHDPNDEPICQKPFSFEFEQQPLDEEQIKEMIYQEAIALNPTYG

His-MPK4 = target: T3, His-MPK4 (Arabidopsis thaliana, UniProt Q39024 1-376)
T3 construct: The N-terminal position of the His tag is read from the name His-MPK4 and the vector pQE30; also called His-fused MPK4; source: E. coli M15, purified (Ni-NTA agarose); not shown: His, N-terminal, kept
T3 sequence (looked up): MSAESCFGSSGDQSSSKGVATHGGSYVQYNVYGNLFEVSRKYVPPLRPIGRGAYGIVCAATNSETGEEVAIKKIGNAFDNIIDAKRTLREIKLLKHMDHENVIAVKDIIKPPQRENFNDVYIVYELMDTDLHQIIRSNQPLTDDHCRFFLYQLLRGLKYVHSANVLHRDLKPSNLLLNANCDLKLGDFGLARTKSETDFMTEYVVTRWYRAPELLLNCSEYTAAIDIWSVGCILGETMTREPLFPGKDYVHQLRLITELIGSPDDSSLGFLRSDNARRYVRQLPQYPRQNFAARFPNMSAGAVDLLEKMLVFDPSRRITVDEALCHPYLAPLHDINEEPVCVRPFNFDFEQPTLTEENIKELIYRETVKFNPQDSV

T1 sequence (Q39026 whole entry, the tested form may be a part): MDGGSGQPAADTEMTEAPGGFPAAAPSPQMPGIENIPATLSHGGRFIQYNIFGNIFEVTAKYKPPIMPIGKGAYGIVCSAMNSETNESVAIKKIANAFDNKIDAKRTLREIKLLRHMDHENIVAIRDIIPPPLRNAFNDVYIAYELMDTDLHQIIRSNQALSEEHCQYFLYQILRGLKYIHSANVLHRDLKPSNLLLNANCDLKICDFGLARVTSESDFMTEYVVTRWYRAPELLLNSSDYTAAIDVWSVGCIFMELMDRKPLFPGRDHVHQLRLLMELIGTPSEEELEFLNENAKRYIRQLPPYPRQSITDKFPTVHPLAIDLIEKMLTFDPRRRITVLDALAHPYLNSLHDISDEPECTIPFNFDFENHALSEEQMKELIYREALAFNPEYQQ

binding result (His-MPK6): binds | binding result (His-MPK3): binds | binding result (His-MPK4): binds
B1: GST-IAA8 (natural protein, Arabidopsis thaliana, UniProt Q38826 1-321, looked up)
chain: MSYRLLSVDKDELVTSPCLKERNYLGLSDCSSVDSSTIPNVVGKSNLNFKATELRLGLPESQSPERETDFGLLSPRTPDEKLLFPLLPSKDNGSATTGHKNVVSGNKRGFADTWDEFSGVKGSVRPGGGINMMLSPKVKDVSKSIQEERSHAKGGLNNAPAAKAQVVGWPPIRSYRKNTMASSTSKNTDEVDGKPGLGVLFVKVSMDGAPYLRKVDLRTYTSYQQLSSALEKMFSCFTLGQCGLHGAQGRERMSEIKLKDLLHGSEFVLTYEDKDGDWMLVGDVPWEIFTETCQKLKIMKGSDSIGLAPGAVEKSKNKERV
notes: IAA8 (Indole-3-Acetic Acid 8), Arabidopsis thaliana, At2g22670, full length, amplified from an Arabidopsis cDNA library and cloned into pGEX-4T-1; The N-terminal position of GST is read from the name GST-IAA8 and the vector pGEX-4T-1; also called GST-IAA8^WT; GST-fused IAA8; source: E. coli BL21 (DE3), purified (glutathione Sepharose-4B); not shown: GST, N-terminal, kept
